Biological target: T1, Mpl expressed as an mKO2 fusion protein (Mpl^mKO2) (human, UniProt P40238 26-635)
T1 sequence (looked up): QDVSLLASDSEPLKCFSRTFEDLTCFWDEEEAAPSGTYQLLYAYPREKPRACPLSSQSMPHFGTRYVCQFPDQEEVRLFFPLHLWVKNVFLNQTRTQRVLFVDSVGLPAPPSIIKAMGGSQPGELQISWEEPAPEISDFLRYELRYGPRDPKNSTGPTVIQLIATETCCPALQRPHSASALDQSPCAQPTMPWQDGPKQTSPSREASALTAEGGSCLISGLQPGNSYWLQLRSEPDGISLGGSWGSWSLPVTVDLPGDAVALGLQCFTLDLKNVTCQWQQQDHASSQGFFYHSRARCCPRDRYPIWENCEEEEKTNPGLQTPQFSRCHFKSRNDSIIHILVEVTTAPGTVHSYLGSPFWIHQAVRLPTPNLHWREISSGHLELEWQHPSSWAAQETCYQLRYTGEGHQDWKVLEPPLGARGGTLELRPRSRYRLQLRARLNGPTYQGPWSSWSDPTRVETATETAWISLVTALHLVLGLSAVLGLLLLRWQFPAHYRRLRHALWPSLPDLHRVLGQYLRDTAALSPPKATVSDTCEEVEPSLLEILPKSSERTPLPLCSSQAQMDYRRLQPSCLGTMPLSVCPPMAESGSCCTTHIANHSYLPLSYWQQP
Experiment: co-IP

fold more co-immunoprecipitated than Jak2V617F with endogenous Mpl in HEL cells: ~8 fold
B1: Jak2WT (endogenous wildtype Jak2 of K562 cells) (enzyme, human (endogenous in K562), UniProt O60674 1-1132, looked up)
chain: MGMACLTMTEMEGTSTSSIYQNGDISGNANSMKQIDPVLQVYLYHSLGKSEADYLTFPSGEYVAEEICIAASKACGITPVYHNMFALMSETERIWYPPNHVFHIDESTRHNVLYRIRFYFPRWYCSGSNRAYRHGISRGAEAPLLDDFVMSYLFAQWRHDFVHGWIKVPVTHETQEECLGMAVLDMMRIAKENDQTPLAIYNSISYKTFLPKCIRAKIQDYHILTRKRIRYRFRRFIQQFSQCKATARNLKLKYLINLETLQSAFYTEKFEVKEPGSGPSGEEIFATIIITGNGGIQWSRGKHKESETLTEQDLQLYCDFPNIIDVSIKQANQEGSNESRVVTIHKQDGKNLEIELSSLREALSFVSLIDGYYRLTADAHHYLCKEVAPPAVLENIQSNCHGPISMDFAISKLKKAGNQTGLYVLRCSPKDFNKYFLTFAVERENVIEYKHCLITKNENEEYNLSGTKKNFSSLKDLLNCYQMETVRSDNIIFQFTKCCPPKPKDKSNLLVFRTNGVSDVPTSPTLQRPTHMNQMVFHKIRNEDLIFNESLGQGTFTKIFKGVRREVGDYGQLHETEVLLKVLDKAHRNYSESFFEAASMMSKLSHKHLVLNYGVCVCGDENILVQEFVKFGSLDTYLKKNKNCINILWKLEVAKQLAWAMHFLEENTLIHGNVCAKNILLIREEDRKTGNPPFIKLSDPGISITVLPKDILQERIPWVPPECIENPKNLNLATDKWSFGTTLWEICSGGDKPLSALDSQRKLQFYEDRHQLPAPKWAELANLINNCMDYEPDFRPSFRAIIRDLNSLFTPDYELLTENDMLPNMRIGALGFSGAFEDRDPTQFEERHLKFLQQLGKGNFGSVEMCRYDPLQDNTGEVVAVKKLQHSTEEHLRDFEREIEILKSLQHDNIVKYKGVCYSAGRRNLKLIMEYLPYGSLRDYLQKHKERIDHIKLLQYTSQICKGMEYLGTKRYIHRDLATRNILVENENRVKIGDFGLTKVLPQDKEYYKVKEPGESPIFWYAPESLTESKFSVASDVWSFGVVLYELFTYIEKSKSPPAEFMRMIGNDKQGQMIVFHLIELLKNNGRLPRPDGCPDEIYMIMTECWNNNVNQRPSFRDLALRVDQIRDNMAG
